Experiment: yeast display, Sf9 membrane polyspecificity reagent, FACS + sequencing; frameworks hold sequencing errors
How it was run: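 Using colony PCR, genes from sorted yeast display clones were amplified, then sequenced on MiSeq at 2 × 250 and filtered by CDR length. The clones had been stained with 10% biotinylated, detergent-solubilized Sf9 membrane reagent for 1 hour at 4 °C and sorted by FACS into low and high (top ~1%) gates on anti-HA and streptavidin fluorescence. Polyreactivity labels come from the gate of origin.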

| Sequence | polyreactivity (PSR sort gate) |
| --- | --- |
| QVQLVESGGGLVQAGGSLRLSCAASGSIFSQYAMGWYRQAPGKERELVAAISRSGGTTYYADSVKGRFTISRDNAKNTVYLQMNSLKPEDTAVYYCAADLKARRGSYDRFYYWGQGTQVTVSS | high polyreactivity |
| QVQLVESGGGLVQAGGSLRLSCAASGFIFWRYTMGWYRQAPGKERELVAVISWRGDNTYADSVEGRFTISRDNAKNTVYLQMNSLKPEDTAVYYCGVYRYDYWGQGTQVTVSS | low polyreactivity |
| QVQLVESGGGLVQAGGSSRLSCAASGRTFDDYAMGWYRQAPATERELVAAISSRGGSTYYADSVKGRFTISRDNAKHTVYLQMNSLKPEDTAVYYSNTLQSSHGSSQYDSWGQGTQVTVSS | low polyreactivity |
| QVQLVESGGGLVQAGGSLRLSCAASGSIFYGYAMGWYRPAPGKERELVAAISSGGRTYYADSVKGRFTISRDNAKNTVYLQMNSLKPEDTAVYHCAASYWKPHRESGYDYWGQGTQVTVSS | high polyreactivity |
| QVQLVESGGGLVQAGGSLRLSCAASGYIFGRNAMGWYRQAPGKERELVAVSSSRGSRTYYADSVKGRFTISRDNAKNTVYLQMNSLKPEDTAVYYCAVRGVVNFDYWGQGTQVTVSS | high polyreactivity |
| QVQLVESGGGLVQAGGSLRLSCAASGRIFRWNAMGWYRQAPGKERDLVAAISWRGANTYYADSVKGRFTISRDNAKNTVYLQMNSLKPEDTAVYYCARYSYRGSQSDSWGQGTQVTVSS | high polyreactivity |
| QVQLVESGGGLVQAGGSLRLSCAASGRIFPAYVMGWYRQSPGKERELVATIDNGGGTYYADSVKGRFTISRDNAKNTVYLQMNSLKPEDTAVYYCARDRHVRWGLKMDYWGQGTQVTVSS | low polyreactivity |
| QVQLVESGGGLVQAGGSLRLICAASGRILYGNVMGWYRQAPGKERELVAAIDSSGATTYYADSVKGRFTISRDNAKNTVYLQMNSLKPEDTAVYYCAAEVTSFSFGGDATEYYWGQGTQVTVSS | low polyreactivity |
| QVQLVESGGGLVQAGGSLRLSCAASGFTYPPYAMGWYRQAPGKERELVAAISSAGSTKYADSVKGRFTISRDNAKNTVYLQMNSLKPEDTAVYYCAARWARSYDYWGQGTQVTVSS | low polyreactivity |
| QVQLVESGGGLVQAGGSLRLTCAASGLTFFYYAMGWYRQAPGKERELVAGISRSGGSTYYADSVKGRFTISRDYAKNTVYLQMNSLKPEDTAVYYCAKRTLVASYIYREGEYWGQGTQVTVSS | high polyreactivity |
| QVQIVESVGGLDQAGGSLRLSCAASGSKFVYYAIGSYRQAPAKERELVAAIDVSDGGTYYADSVKVRFSISRDNAKNTVYLQMNSLKPEVTAVYYCAADQGIDVPFICYDYWGQGTQVTVSS | high polyreactivity |
| QVPLVESGGGLVQAGGSLRLSCAASGITFYYYTMGWYIQAPGKERELVAGITRGGRRYDADSVKGRFTISRDNAKNPVYLQMNSLKPEDTAVYYCNADDDIQYKGRYNYWGQGTQVTVSS | low polyreactivity |
| LVQLVESGGGLVQAGGSLRVSCAASGLIIYDNAMGGYRQAPGKEREVVATISSGGRTYYADSVKGRFTISRDNAKNTVYLQMNSLKPEDTAVYYCAVDPGYSWYAQYDYWGQGTQVTVSS | low polyreactivity |
| QVQLVESGGGLVQAGGSLRLSCAASGSTFTSYAMGWYRQAPGKERELVAAISKSGGSTYYADSVKGRFTISRDNAKNTVSLQMNSLKPEDSAVFYCAARYIVRSYSTSRFDYWGQGTQVTVSS | low polyreactivity |
| QVQLVESGGGLVQAGGSLRLSCPASGITFGTNAMGWYIQAPGKERELVAAISKRGSSTYYADSVKGRFTISRDNAKNTVYLQMNSLKPEDTAVYYCNVVDERTRNLSKFYYWGQGTQVTVSS | high polyreactivity |
| QVQLVESGGGLVQAGGSLRLSCAASGRIFGRNAMGWYRQAPGKERELVAAISKSGTSTYYADSVKGRFTISRDNAKNTVYLQMNSLKPEDTAVYYCAAALPGYGDYYYWGQGTQVTVSS | high polyreactivity |
| QVQLVESGGGLVQAGRSLRLSCAASGRTYSVYAMGWYRKAPGKETELLAGITSGGSTNYADSVKGRFTISRDNAKNTVYLQMNSLNPEDTAVYYCAAENVYAGFGFVSIGDYWGQGTQVTVST | low polyreactivity |
| QVQLVESGGGLVQAGGSLRLSCAASGRIFLVYAMGWYRQAPGKERELVAAITKRGGSTYYADSVKGRFTISRDNAKNTVYLQMNSLKPEDTAVYYCAADGYTRGYDYWGQGTQVTVSS | high polyreactivity |
| QVQLVESGGGLVQAGGSLRLSCSASGITFEGYAMGGYRQAPGKERELVAAIRSSGTSRYYADSVKGRFTISRDNAKNTVYLQMNSQKPEDTAVYYCNRARSSSRYDYWGQGTQVTVSS | low polyreactivity |
| QVQLVESGGGLVQAGGSLRLSCAASGSIFYFNAMGWYRQAPGKERELVADISWSGGESTYYADSVKGRFTISRDNAKNTVYLQMNSLKPEYTAVYYCAADYWSPYVYVYWGQGTQVTLSS | low polyreactivity |
| QDQLVESGGGLVHAGGSLRLSCAASGNNFSSYVMGWYRQATGKERELVAAISSRGGSTYYADSVKGRFTISRDNSKNTVYLQMNCLKPEDTAVYYCAARYLSCYDWGQGTQVSVSS | high polyreactivity |
| QVQLVESGGGLVQAGGSLRLSCAASRLIFRGNDMGWYRQAPGKERELLAGINSSGSTNYADSVKGRFTISRDNAKNTVYLHMNSLKPEDTAVYYCAARAIVSFDYWGQGTQVTVSS | low polyreactivity |

| Sequence | polyreactivity (PSR sort gate) |
| --- | --- |
| QVQLVESGGGLVQAGGSLRLSCAPSGRTFVHYTMGWYRQAPGKERELVAAISGTGTSTYYADSVKGRFTISRDNAKNTVYLQMNSLKPEDTAVYYCARRYWYPDAFYRYDYWGQGTQVTVSS | low polyreactivity |
| QVQLVESGGGLFQAGGSLRLSCAPSGRTFDYNAMGWYRQAPGKERELVAAISGSGTRTFYADSVKGRFTISRDNAKNTVYLQMNSLKPEDTAVYYCAASHGWSKSIFYYWGQGTQVTVSS | high polyreactivity |
| QVQLVESGGGLVQAGGSLRLSCAASGFIFDEYAMGWYRQAPGKERELVAAISWSGSRTYYADSVKGRFTISRDNAKNTVYLQMNRLKPEDTSVYYCAKVTGVVAGRRNYWGQGTQVTVSS | low polyreactivity |
| QVQLVESGGGLVQAGGSLRLSCAASGNIFLYYAMGWYRQAPGKERELVADIDSSGASTYYADSVKGRFTISRDNAKNTVYLEMNSLKPEDTAVYYCAAEFHWWYAGYDYGYWGQGTQVTVSS | low polyreactivity |
| QVHLVESGGGLVQAGGSLRLSCAASGLIFNIYAMGWYRQAPGKERELVAAISKSGGSTYYADSVKGRFTISRDNAKNTVYLQMNSLKPEDTAVYYCAVVRNSYRVLRLNYWGQGTQVTVSS | high polyreactivity |
| QVQLVESRGGLVQAGGSLRLSCAASGFIFGVNAMGWYRQAPGKERELVAAITRNGGSTYYADSVKGRFTISRDYAKNSVYLQMNSLKPEDTAVYYCAKYVRRAPSTFDVDYWGQGTQVTVSS | high polyreactivity |
| QVQLVESGGGLVQAGGSLRLSCAASGYIFHSYMGSYRQAPGKETELVAAITSGGSTYYADSVKGRFTISRDNAKNTFFLKMNSLKPEDTAVYYCGAGWWYYLHMDYWGQGTQVTVSS | high polyreactivity |
| QVQLVESGGGLVQAGGSLRLSCAASGIIFGRYAMGWYRQAPGKERELVAAISGSGGITYYADSVKGRFTISRDNAKNTVYLQMNSLKPEDTAVYYCATRKYLTYNYWGQGTQVTVSS | high polyreactivity |
| QVQLVESGGGLVQAGGSLRLSCAASGRTIYYNGMGWDRQAPGKERELVAAITSGGTTSYADSVKGRFTISRDNAKNTVYLQMNSLKPEDTAVYYCARVTDGVVYEYDYWGQGTQVTVSS | low polyreactivity |
| QVQLVESGGGLVQAGGSLRLSCDASGGIFRFNSMGWYRQAPGKERELVAGISSTYYADSVKGRFTISRDNAKNTVYLQMNSLKPEDTAVYYCAAAGPEEHGYTYPGNNQMESWGQGTQVTVSS | low polyreactivity |
| QVQLVESGGGLVQAGGSLRLSCAASGRTLGGNAMGWYRQAPGKERELVAAITNSASTYADSVKGRFTISRDNAKNSVYLQMNSLKPEDTAVYYCNAPVPSDQHGDYWGQGTQVTVSS | low polyreactivity |
| QVQLVESGGGLVQAGGSLRLSCAASGSILVQSAMGWERQAPGKERELVAAISRGGSTNYADSVKGRFTISRDNPKNTVYLQMNSLKPEDTAVYYCAARRPWGEYYWGQGTQVNVSS | low polyreactivity |
| QVQLVESGGGLVQAGGSLRLSCAASGRTFNYYAMGWYRQAPGKERELVAAISGSGGRTYYADSVKGRFTISRDNAKNTVYLQMNSLKPEDTAVYYCNADVGKYPYAHTYWARRYYYLGQGTQVTVSS | high polyreactivity |
| QVQHVESGGGLVQAGGSLRLSCAASGSTIILNAMGWYRQAPGKERELVATISSSDTSTYYADSVKGRFTISRDNANNTVYLQMNSLKPEDTAVYYCNADYYTTSYLQRVIHYGVEYDYWGQGTQVTVSS | low polyreactivity |
| QVQHVESGGGLVQAGGSLRLSCAASGGTFADYTMGWYRQAPGKERELVAAITSSGGSTYYADSVKGRFTISRDNAKNTVYLQMNSLKTEDTAVYYCAALGYVAMGYWGQGTQVTVSS | high polyreactivity |
| QVQLVESGAGLVQAGGSLRLSCAASGFTFDYYAMGWYRQAPGKESELVATINGASSTNYADSVKGRFTISRDNAKNTVYLQMNSLKPEDTAVYDCNARYYGPDFVLAYDYWGQGTQVTVSS | low polyreactivity |
| QVQLVESGGGLVQAGGSLRLSCAASGRIFVTYAMGWYRQAPGKERELVAAITSRGGRTYYADSVKGRFTISRDNAKKTVYLQMNSLKPEDTAVYYCAAYPGPGARYYYWGQGTQVTVSS | high polyreactivity |
| QVQLVESGGGLVQAGGSLRLSCAASGSTFRNNAMGWYRQAPGKETELVAAISFSSGRTYYADSVKGRFTISRDYAKNTVYLQMNSLKPEDTAVYYCAALQYRRRPYGAVERYDYWGQGTQVTVSS | high polyreactivity |
| QVQLVDSGGGLVQAGGSISLSCAASGRTFFVNAMGWYRQAPGKERELVAAITRRGGITYYADSVKGRFTISRDNAKNTVYLQMNSLKPEDTAVYYCAADRSYYPDTRTTYGYNYWGQGTQVTVSS | low polyreactivity |
| QVQLVESGGGLVQAGGSLRLSCAASGRIFAYYAMGWYRQAPGKEREVVAAISRSGVSTYYADSVKGRFTISRDNAKNTVYLQMNSLKPEDTAVYYCAARWRYGFTSGDYWGQGTQVNVSS | low polyreactivity |
| QVQLVESRGGLVQAGGSLRLSCAASGRTFSNAMGWYRQAPGNERELVADISSGGSTNYADSVKGRFTISRDNAKNTVYLQMNSLKPEDTAVYYCAAVSGSRYGYSDDYWGQGTQVTVSS | low polyreactivity |

Source: the nanobody polyreactivity screen of Harvey et al. (2022)
